The target in the series is T1, yeast topo II (full-length) (Saccharomyces cerevisiae, UniProt P06786 1-1428).
T1 sequence: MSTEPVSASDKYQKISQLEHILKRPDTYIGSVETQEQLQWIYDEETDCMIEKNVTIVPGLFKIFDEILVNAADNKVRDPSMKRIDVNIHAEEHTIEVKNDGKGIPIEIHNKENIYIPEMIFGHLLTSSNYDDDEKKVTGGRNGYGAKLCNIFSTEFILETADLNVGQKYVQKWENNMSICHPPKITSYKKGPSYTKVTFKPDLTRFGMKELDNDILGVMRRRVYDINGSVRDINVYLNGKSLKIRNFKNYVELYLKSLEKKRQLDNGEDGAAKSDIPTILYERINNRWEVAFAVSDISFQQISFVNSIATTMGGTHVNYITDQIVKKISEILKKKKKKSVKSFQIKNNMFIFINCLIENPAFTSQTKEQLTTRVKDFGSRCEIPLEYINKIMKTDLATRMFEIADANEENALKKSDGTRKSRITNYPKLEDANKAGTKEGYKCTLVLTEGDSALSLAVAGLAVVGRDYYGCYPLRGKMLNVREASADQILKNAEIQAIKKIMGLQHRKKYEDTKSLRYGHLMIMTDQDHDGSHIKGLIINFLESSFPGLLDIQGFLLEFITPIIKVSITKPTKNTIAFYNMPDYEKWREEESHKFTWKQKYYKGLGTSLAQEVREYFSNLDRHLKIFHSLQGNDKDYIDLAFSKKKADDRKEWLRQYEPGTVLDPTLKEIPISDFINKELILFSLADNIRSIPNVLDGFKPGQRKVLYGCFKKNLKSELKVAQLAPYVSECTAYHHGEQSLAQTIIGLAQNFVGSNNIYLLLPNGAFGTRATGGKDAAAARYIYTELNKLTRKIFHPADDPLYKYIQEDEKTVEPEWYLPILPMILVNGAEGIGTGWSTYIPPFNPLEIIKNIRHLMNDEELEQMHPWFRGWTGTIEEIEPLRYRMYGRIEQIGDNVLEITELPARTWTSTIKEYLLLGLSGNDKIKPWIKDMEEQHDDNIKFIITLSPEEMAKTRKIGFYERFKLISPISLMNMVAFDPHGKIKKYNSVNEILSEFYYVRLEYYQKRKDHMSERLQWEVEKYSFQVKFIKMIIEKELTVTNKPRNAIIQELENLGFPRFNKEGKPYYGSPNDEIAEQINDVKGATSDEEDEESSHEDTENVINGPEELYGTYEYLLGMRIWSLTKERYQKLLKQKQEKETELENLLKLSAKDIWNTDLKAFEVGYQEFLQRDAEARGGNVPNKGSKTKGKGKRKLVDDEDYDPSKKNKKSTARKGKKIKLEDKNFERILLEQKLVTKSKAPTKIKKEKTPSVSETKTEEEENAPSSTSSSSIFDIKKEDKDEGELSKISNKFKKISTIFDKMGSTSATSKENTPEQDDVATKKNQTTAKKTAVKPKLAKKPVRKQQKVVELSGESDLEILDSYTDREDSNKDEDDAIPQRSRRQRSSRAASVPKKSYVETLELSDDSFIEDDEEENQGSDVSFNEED
As to the kind of experiment: EMSA. On the technique in general: A gel shift assay detects complexes by their altered migration in electrophoresis.

B1: 51 bp dsDNA (dsDNA)
DNA 1: TATTTTCTTGTTCTTTTACATCAACACAATGTGACCATTACCTGGTTATCA
DNA 2: TGATAACCAGGTAATGGTCACATTGTGTTGATGTAAAAGAACAAGAAAATA
B1 came in with a dissociation constant (Kd) of approximately 50 nM.

In general, Kd refers to the concentration at which binding is half-saturated. A higher Kd goes with lower affinity.

The record behind these values is article doi:10.64898/2025.12.09.693212.
